FireProtDB (doi:10.1016/s0167-4838(99)00132-6)

Conditions: Oryctolagus cuniculus; pH 6; Thermal; DSC; KH2PO4-KOH 10 mM; reversible: no

Chain of Glyceraldehyde-3-phosphate dehydrogenase wild type, P46406 (P46406 whole entry): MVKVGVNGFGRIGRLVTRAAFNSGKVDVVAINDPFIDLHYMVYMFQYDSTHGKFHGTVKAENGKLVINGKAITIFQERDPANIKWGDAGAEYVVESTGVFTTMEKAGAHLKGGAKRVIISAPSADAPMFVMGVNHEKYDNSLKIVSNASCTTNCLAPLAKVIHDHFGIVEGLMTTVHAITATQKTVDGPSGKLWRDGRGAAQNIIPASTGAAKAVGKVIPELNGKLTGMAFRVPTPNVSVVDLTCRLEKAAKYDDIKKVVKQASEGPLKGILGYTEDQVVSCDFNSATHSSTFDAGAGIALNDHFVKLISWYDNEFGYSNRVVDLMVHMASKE

For “Glyceraldehyde-3-phosphate dehydrogenase wild type, P46406”, the Tm was 68.9 °C and the “unfolding enthalpy (calorimetric)” value was 693 kcal/mol.
